According to PMC4167758:

How the values were obtained:
[1] = biological target: SelK U92C (Homo sapiens) (UniProt Q9Y6D0); experiment: electrospray ionization mass spectrometry
[2] = biological target: SelK U92C (Homo sapiens) (UniProt Q9Y6D0); experiment: SDS-PAGE under non-reducing conditions
[3] = biological target: SelK U92C (Homo sapiens) (UniProt Q9Y6D0); experiment: redox titration with gel shift on non-reducing SDS-PAGE
[4] = biological target: SelK U92S (Homo sapiens) (UniProt Q9Y6D0); experiment: SDS-PAGE at high protein concentration

Row | stoichiometry N [1] | stoichiometry N [2] | stoichiometry N [3] | stoichiometry N [4] | Substance
1 | 2 | 2 | 2 |  | SelK U92C (from UniProt Q9Y6D0 2-94) (natural protein)
2 |  |  |  | 2 | SelK U92S (from UniProt Q9Y6D0 2-94) (natural protein)
